The values that follow come from paper PMC12501226.

Assay in all cases: SEC
In assay [1] the target is T1A (collagen XVIII trimerization domain, 1-residue G/S linker, ACE2 18-615) (human) (UniProt P39060).
Assay [2] addresses T3A (collagen XVIII trimerization domain, 3-residue G/S linker, ACE2 18-615) (human) (UniProt P39060).
In assay [3] the target is T5A (collagen XVIII trimerization domain, 5-residue G/S linker, ACE2 18-615) (human) (UniProt P39060).
Assay [4] deals with T18A (collagen XVIII trimerization domain, 18-residue G/S linker, ACE2 18-615) (human) (UniProt P39060).

As usually defined, the stoichiometry N is the number of molecules, sites or subunits per partner or assembly. As for “T1A (collagen XVIII trimerization domain, 1-residue G/S linker, ACE2 18-615) (from UniProt P39060;Q9BYF1)”, the stoichiometry N in assay [1] came out at 3.
Take “T3A (collagen XVIII trimerization domain, 3-residue G/S linker, ACE2 18-615) (from UniProt P39060;Q9BYF1)”: the stoichiometry N in assay [2] worked out at 3.
Substance “T5A (collagen XVIII trimerization domain, 5-residue G/S linker, ACE2 18-615) (from UniProt P39060;Q9BYF1)” came in with a stoichiometry N in assay [3] of 3.
In turn, “T18A (collagen XVIII trimerization domain, 18-residue G/S linker, ACE2 18-615) (from UniProt P39060;Q9BYF1)” showed a stoichiometry N in assay [4] of 3.
